{"source": "paper PMC5113752", "about": "(Protein expression and purification, 2015)", "target": "the molecule itself", "assay": "cross-linking", "data": [{"protein": "p7 viroporin from hepatitis C virus strain H77 genotype 1a, in proteoliposomes (natural protein, hepatitis C virus genotype 1a strain H77, UniProt P27958 747-809, looked up) ALENLVILNAASLAGTHGLVSFLVFFCFAWYLKGRWVPGAVYALYGMWPLLLLLLALPQRAYA", "values": [{"measurement": "stoichiometry N", "value": 6}]}]}
